In patent US9731011B2, “Combination tumor treatment with drug-loaded, bispecific ligand-targeted minicells and interferon-gamma” (EnGeneIC Molecular Delivery Pty Ltd, priority 2013, dated 2017):

How the values were obtained:
Assay type in all cases: in vivo, athymic nude mice
[1] = test system: human alveolar adenocarcinoma tumor xenografts (A549); test: Human alveolar adenocarcinoma (A549) xenograft, tumors ~285 mm^3 (Example 2); details: start ~285 mm^3; i.v.; 1×10^9 minicells per dose; IFN-gamma 0.5×10^4 IU per dose; by day 43, six doses
Description: As described above, minicells were produced from an S. typhimurium minCDE-mutant strain and were purified using a gradient centrifugation/filamentation/filtration/endotoxin removal procedure previously described in MacDiarmid et al. (2007). The purified minicells were packaged with chemotherapeutic drug doxorubicin, also per MacDiarmid et al. (2007).
The bispecific antibody (BsAb) was a single polypeptide containing binding specificity respectively for S. typhimurium O-polysaccharide, present on minicells, and for human EGFR, overexpressed on alveolar adenocarcinoma cells. The O-polysaccharide specificity was derived from a mouse monoclonal antibody, for which the variable regions were isolated from a hybridoma cell line and presented as a single-chain variable fragment (scFv). The hybridoma cell line was prepared by immunizing mice with purified LPS and fusing the lymphocytes with tumor cells. Subsequently, the clones were screened for an antibody capable of binding the O-polysaccharide. The EGFR specificity, also presented as an scFv, was derived from the commercial antibody Erbitux® (Bristol Myers Squibb, USA). […]
The resulting tumors were measured twice a week, using an electronic digital caliper (Mitutoyo, Japan, with a measure accuracy of +/−0.001 inch), and mean tumor volume was calculated using the formula length (mm)×width (mm^2)×0.5=volume (mm^3). […]

[2] = test system: human breast tumor xenografts (MDA-MB-468); test: Human breast cancer (MDA-MB-468) xenograft, moderate tumors ~145 mm^3 (Example 3); details: start ~145 mm^3; i.v.; 1×10^9 minicells per dose; IFN-gamma 0.5×10^4 IU per dose; by day 30, six doses
Protocol: As described above, minicells were purified, packaged with doxorubicin, and targeted using single chain bispecific antibody with anti-O-polysaccharide and anti-EGFR specificities. Additionally, human breast cancer cells (MDA-MB-468; ATCC) were established as xenografts in nu/nu mice, and tumor volumes were measured, also as described.
The treatments commenced when the tumors reached a mean of ˜145 mm^3, and mice were randomized to four different groups of seven mice per group. All treatments were administered i.v. in a total volume of 100 μl. All minicell doses contained 1×10^9 minicells of the respective type.
The experiment was designed as follows: Group 1 (control) received sterile physiological saline only. Group 2 (control) received IFN-gamma (0.5×10^4 IU) per dose.

[3] = test system: human breast tumor xenografts (MDA-MB-468); test: Human breast cancer (MDA-MB-468) xenograft, large tumors ~250 mm^3 (Example 4); details: start ~250 mm^3; i.v.; 1×10^9 minicells per dose; IFN-gamma 0.5×10^4 IU per dose; by day 28, 3 doses
Protocol: As described above, minicells were purified, packaged with doxorubicin and targeted using single chain bispecific antibody with anti-O-polysaccharide and anti-EGFR specificities. Human breast cancer cells (MDA-MB-468) were established as xenografts in nu/nu mice, and tumor volumes were measured, also as described above.
The treatments were begun when the tumors reached a mean of ˜250 mm^3. As above, mice were randomized to four different groups of seven mice per group. The i.v. administration and minicell doses were as above, too.
The experiment was designed as follows. Group 1 (control) received sterile physiological saline only. Group 2 (control) received IFN-gamma (0.5×10^4 IU) per dose.

Measured: anti-tumor effect (tumor volume)

B1: IFN-gamma: interferon-gamma protein; given i.v. to mice, or endogenous serum level in dogs (protein, UniProt P01580 23-155, looked up)
Interferon gamma: HGTVIESLESLNNYFNSSGIDVEEKSLFLDIWRNWQKDGDMKILQSQIISFYLRLFEVLKDNQAISNNISVIESHLITTFFSNSKAKKDAFMSIAKFEVNNPQVQRQAFNELIRVVHQLLPESSLRKRKRSRC
no anti-tumor efficacy: all assays above
